Laboratory results: patent US20160264651A1 (Hoffmann-La Roche, published 2016)

What was measured:
[1] = target: T1, TNC Fn5-A1-humanA2-A3 antigen construct (human TNC A2 domain in the context of domains A1 and A3), E. … (human, UniProt P24821 991-1075; P24821 1076-1257; P24821 1258-1350, limits assumed, biotinylated); test: SPR, Biacore T100, biotinylated antigen on streptavidin chip, Fab as analyte
T1 construct: domain: fifth fibronectin type III domain (Fn5);domain: A1 and A2 domain;domain: A3 domain; Not glycosylated; also called Immob E. coli Ag
T1 sequence (looked up): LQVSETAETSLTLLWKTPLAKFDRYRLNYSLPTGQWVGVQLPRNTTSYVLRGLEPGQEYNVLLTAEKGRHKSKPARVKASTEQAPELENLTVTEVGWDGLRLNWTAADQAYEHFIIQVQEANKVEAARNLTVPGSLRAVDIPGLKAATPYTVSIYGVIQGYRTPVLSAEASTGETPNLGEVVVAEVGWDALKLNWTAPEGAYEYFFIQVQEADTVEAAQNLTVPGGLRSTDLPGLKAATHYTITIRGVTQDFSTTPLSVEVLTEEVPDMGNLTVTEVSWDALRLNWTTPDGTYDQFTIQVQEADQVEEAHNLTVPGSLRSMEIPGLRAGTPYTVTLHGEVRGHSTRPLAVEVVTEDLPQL
Protocol: (§1) The affinity of the TNC A2 2B10 Fab fragment as well as of the human IgG1 converted TNC A2 2B10 antibody was subsequently determined and confirmed for human, murine and cynomolgus TNC A2 domain by surface plasmon resonance using a BIACORE® T100 machine (GE Healthcare) at 25° C. For this purpose the biotinylated antigens (expressed in E. coli, antigen in context but not glycosylated) were immobilized on a streptavidin chip and the constructs were used as analytes. For immobilization the antigens were diluted with HBS-EP+ (GE Healthcare, 10 mM HEPES, 150 mM NaCl, 3 mM EDTA, 0.05% Surfactant P20, pH 7.4) to 0.1 μg/ml before injection at a flow rate of 10 μl/minute to achieve approximately 80 response units (RU) of coupled protein. The TNC A2 domain from man, mouse and cynomolgus monkey was expressed in the context of the domains A1 and A3. The antigen constructs comprising the fifth fibronectin type III domain of human TNC (Fn5), the A1 and A2 domain of either human, murine or cynomolgus TNC, and the A3 domain of human TNC (TNC Fn5-A1-human/murine/cynoA2-A3) are shown in SEQ ID NOs 99-104.
(§2) For kinetics measurements, two-fold serial dilutions of Fab fragments (range between 1.56 nM to 100 nM) or IgG (range between 0.39 nM to 25 nM) were injected in HBS-EP+ at 25° C. at a flow rate of 50 μl/min. Association and dissociation times were 180 s and a regeneration with 10 mM glycine pH 1.5 for 60 s was performed between cycles. Association rates (kₒₙ) and dissociation rates (koff) were calculated using a simple one-to-one Langmuir binding model (BIACORE® T100 Evaluation Software version 1.1.1) by simultaneously fitting the association and dissociation sensorgrams. The equilibrium dissociation constant (KD) was calculated as the ratio koff/kₒₙ. See, e.g., Chen et al., J Mol Biol 293, 865-881 (1999)

[2] = target: T2, TNC Fn5-A1-murineA2-A3 antigen construct (murine TNC A2 domain in the context of domains A1 and A3), E. … (human; murine, UniProt P24821 991-1075; Q80YX1 1076-1257; P24821 1258-1350, limits assumed, biotinylated); test: as above
T2 construct: domain: fifth fibronectin type III domain (Fn5);domain: A1 and A2 domain;domain: A3 domain; also called Immob E. coli Ag
T2 sequence (looked up): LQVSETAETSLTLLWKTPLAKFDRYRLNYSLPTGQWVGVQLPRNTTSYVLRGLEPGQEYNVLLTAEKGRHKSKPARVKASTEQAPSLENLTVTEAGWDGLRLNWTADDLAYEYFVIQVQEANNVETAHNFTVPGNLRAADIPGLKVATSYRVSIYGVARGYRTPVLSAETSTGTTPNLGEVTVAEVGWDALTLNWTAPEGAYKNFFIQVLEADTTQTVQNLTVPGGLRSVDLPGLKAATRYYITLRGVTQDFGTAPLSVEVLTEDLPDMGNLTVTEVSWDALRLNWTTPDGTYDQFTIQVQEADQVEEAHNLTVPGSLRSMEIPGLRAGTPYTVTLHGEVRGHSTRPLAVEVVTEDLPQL
Protocol: as §1, §2

[3] = target: T3, TNC Fn5-A1-cynoA2-A3 antigen construct (cynomolgus TNC A2 domain in the context of domains A1 and A3), E. … (human; cynomolgus, UniProt P24821 991-1075; P24821 1258-1350); test: as above
T3 construct: also called Cyno TNC; Immob E. coli Ag
Protocol: as §1, §2

[4] = target: T4, E. coli-expressed human TNC A2 with C-terminal avi-tag and 6xHis-tag, biotinylated (human, biotinylated in vivo upon expression (avi-tag)); test: ELISA, biotinylated human TNC-A2 on neutravidin plates, Fab supernatants detected by anti-Flag/HRP
T4 construct: Used for the selections and ELISA; also called hu TNC A2; biotinylated human TNC A2
T4 chain: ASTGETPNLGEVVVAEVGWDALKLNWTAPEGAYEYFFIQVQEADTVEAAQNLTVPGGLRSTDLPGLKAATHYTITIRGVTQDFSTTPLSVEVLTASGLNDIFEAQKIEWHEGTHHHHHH
Protocol: Selections were carried out over 3 rounds using constant antigen concentrations at 100 nM. In round 2, capture of antigen:phage complexes was performed on neutravidin plates instead of streptavidin beads. Specific binders were identified by ELISA as follows using: 100 μl of 100 nM biotinylated human TNC-A2 was coated in each well of neutravidin plates. Fab-containing bacterial supernatants were added and binding Fabs were detected via their Flag-tags by using an anti-Flag/HRP secondary antibody. Once identified, clone 2B10 was bacterially expressed in a 0.5 litre culture volume, affinity purified and further characterized by SPR-analysis using BIACORE T100. See SEQ ID NOs: 56 and 60.

[5] = target: T1, TNC Fn5-A1-humanA2-A3 antigen construct …; test: SPR, Biacore T100, biotinylated antigen on streptavidin chip, IgG as analyte (avidity)
Protocol: as §1, §2

[6] = target: T2, TNC Fn5-A1-murineA2-A3 antigen …; test: as above
Protocol: as §1, §2

[7] = target: T3, TNC Fn5-A1-cynoA2-A3 antigen construct …; test: as above
Protocol: as §1, §2

[8] = target: T4, E. coli-expressed human TNC A2 with …; test: selection on human TNC A2, ELISA and ProteOn screening
Protocol: Selections were carried out against E. coli expressed human TNC A2 which was cloned upstream an avi-tag and 6×his-tag (see SEQ ID NO: 97). The antigen was biotinylated in vivo upon expression. Selections have been carried out in solution as described for the primary TNC A2 selections using decreasing concentrations of human TNC A2 ranging from 100 to 2 nM. After identification of affinity-matured clones by ELISA, secondary screenings were carried out using a ProteOn XPR36 biosensor (Biorad) and kinetic rate constants and affinities were determined analyzing affinity-purified Fab preparations on the same instrument. KD was measured by surface plasmon resonance using a ProteOn XPR36 machine (Biorad) at 25° C. with antigens immobilized on NLC sensor chips (Biorad). Briefly, recombinant antigen was diluted to 10 μg/ml in PBS/0.005% Tween-20, pH 7.4 and injected at […] for 100 to 300 s to achieve approximately 200-800 response units (RU) of coupled antigen. […] Association rates (kₒₙ) and dissociation rates (koff) were calculated using a simple one-to-one Langmuir binding model (ProteOn manager software version 2.1) by simultaneously fitting the association and dissociation sensorgrams. The equilibrium dissociation constant (KD) is calculated as the ratio koff/kₒₙ.

B1: 2B10 anti-TNC A2 Fab fragment (parental clone 2B10) (Fab, V domains shown)
VH: QVQLVQSGAEVKKPGSSVKVSCKASGGTFSSYAISWVRQAPGQGLEWMGGIIPIFGTANYAQKFQGRVTITADKSTSTAYMELSSLRSEDTAVYYCARLYGYAYYGAFDYWGQGTTVTVSS
VL: DIQMTQSPSSLSASVGDRVTITCRASQGIRNDLGWYQQKPGKAPKRLIYAASSLQSGVPSRFSGGGSGTEFTLTISSLQPEDFATYYCLQNGLQPATFGQGTKVEIK
notes: also called TNC A2 2B10 Fab fragment; Fab fragment 2B10
Kd [1]: 1.8 nM | Kd [2]: 180 nM | Kd [3]: 17 nM | binding result [4]: binds

B2: 2B10 anti-TNC A2 human IgG1 antibody (wild-type, non-glycoengineered) (antibody, V domains shown)
VH: QVQLVQSGAEVKKPGSSVKVSCKASGGTFSSYAISWVRQAPGQGLEWMGGIIPIFGTANYAQKFQGRVTITADKSTSTAYMELSSLRSEDTAVYYCARLYGYAYYGAFDYWGQGTTVTVSS
VL: DIQMTQSPSSLSASVGDRVTITCRASQGIRNDLGWYQQKPGKAPKRLIYAASSLQSGVPSRFSGGGSGTEFTLTISSLQPEDFATYYCLQNGLQPATFGQGTKVEIK
notes: also called IgG 2B10; 2B10 human IgG
Kd [5]: 0.29 nM | Kd [6]: 1.9 nM | Kd [7]: 0.21 nM

B3: 2B10_D1A2 affinity-matured anti-TNC A2 Fab clone (Fab, V domains shown)
VH: QVQLVQSGAEVKKPGSSVKVSCKASGGTFSSYAISWVRQAPGQGLEWMGGIIPIFGTANYAQKFQGRVTITADKSTSTAYMELSSLRSEDTAVYYCARLYGYAYYGAFDYWGQGTTVTVSS
VL: DIQMTQSPSSLSASVGDRVTITCRASQGIRNVLGWYQQKPGKAPKRLIYDAYSLQSGVPSRFSGGGSGTEFTLTISSLQPEDFATYYCLQNGLQPATFGQGTKVEIK
notes: From the VL sub-library; No KD is printed for this clone; also called clone 2B10_D1A2
binding result [8]: binds
